# Experimental data: patent US7558625B2, “Combined micro-channel generation and iontophoresis for transdermal delivery of pharmaceutical agents” (TransPharma Medical Ltd., priority 2004, dated 2009)
# What was measured:
# [1] = Transdermal delivery of hGH by ViaDerm and iontophoresis in rats, high/low hGH dose vs SC; format: in vivo; design: hGH plasma levels: unit not given here; conditions: for hGH plasma levels: Avg.
# Procedure: In the present experiment a power supply (parallel connection instead of serial) was used in order to improve the power supply.
# Human GH solution was prepared from a 12 mg Genotropin vial (Genotropin®, Pharmacia and Upjohn). The levels of hGH in serum were analyzed using Elisa kit (DSL Inc. Webster Tex., USA). HPLC was used to quantitate SC solution.
# ViaDerm operating parameters: Burst length—700 μsec; Voltage—330V; Number of bursts—2; 2 applications on the same skin area (150 micro-channels/cm^2); Two application sites (total area 2.8 cm^2); Without current limitation; 80 μm diameter electrode of the electrode arrays.
# Iontophoresis application parameters: Current density 0.64 mA/cm^2 (total 1.8 mA). Current elevation time (from 0-max) 20 seconds. Current application time 8 hours.
# [2] = Transdermal delivery of hGH by ViaDerm and iontophoresis in anesthetized rats, serum hGH (Elisa); format: in vivo; conditions: for Serum hGH levels: ViaDerm, Avg.; for AUC: serum hGH, 1.5 mg hGH patch
# Procedure: Two groups of rats were tested. […] One group was connected to a power supply (constructed in house) and the other was not. The hGH loaded patch was connected to the negative pole of the power supply.
# Rats (males, 300-325 gr, Sprague Dawley) were kept under anesthesia throughout the experiment. The following experimental groups were investigated: • Group 1—Passive delivery: 3 rats were treated with ViaDerm on two adjacent sites (total area 2.8 cm^2) over which the iontophoresis patch was placed. The reference electrode assembly was placed on a shaved intact skin on the back of the anal. The power supply was not turned on. • Group 2—Iontophoresis delivery: 3 rats were treated with ViaDerm on two adjacent sites (total area 2.8 cm^2) over which the iontophoresis patch was placed. The reference electrode assembly was placed on a shaved intact skin on the back of the animal. The power supply was turned on.
# ViaDenm operating parameters: Burst length—700 μsec; Voltage—330V; Number of bursts—2; Two applications on the same skin area (150 pores/cm^2); Without current limitation; 80 μm diameter electrode arrays; Current density used: 0.18 mA/cm^2.
# To detect hGH levels in serum—Elisa kit (DSL Inc. Webster, Tex., USA) was used.
# [3] = ViaDerm + Iontophoresis off 15 mg
# [4] = ViaDerm + Iontophoresis on 1.5 mg
# [5] = ViaDerm + Iontophoresis on 15 mg
substance,measurement,setting,value
"hGH: human growth hormone (Genotropin, Pharmacia and Upjohn)",hGH plasma levels,"[1]; 1.5 mg hGH, Iontoph. on, +VD, 0.0 hr",0.1
same,hGH plasma levels,"[1]; 1.5 mg hGH, Iontoph. on, +VD, 1.0 hr",225.1
same,hGH plasma levels,"[1]; 1.5 mg hGH, Iontoph. on, +VD, 2.0 hr",346.3
same,hGH plasma levels,"[1]; 1.5 mg hGH, Iontoph. on, +VD, 3.0 hr",617.3
same,hGH plasma levels,"[1]; 1.5 mg hGH, Iontoph. on, +VD, 4.0 hr",444.5
same,hGH plasma levels,"[1]; 1.5 mg hGH, Iontoph. on, +VD, 6.0 hr",184.3
same,hGH plasma levels,"[1]; 1.5 mg hGH, Iontoph. on, +VD, 8.0 hr",111.3
same,hGH plasma levels,"[1]; 15 mg hGH, Iontoph. off, +VD, 0.0 hr",0.1
same,hGH plasma levels,"[1]; 15 mg hGH, Iontoph. off, +VD, 1.0 hr",89.7
same,hGH plasma levels,"[1]; 15 mg hGH, Iontoph. off, +VD, 2.0 hr",178.7
same,hGH plasma levels,"[1]; 15 mg hGH, Iontoph. off, +VD, 3.0 hr",283.7
same,hGH plasma levels,"[1]; 15 mg hGH, Iontoph. off, +VD, 4.0 hr",389.4
same,hGH plasma levels,"[1]; 15 mg hGH, Iontoph. off, +VD, 6.0 hr",573.1
same,hGH plasma levels,"[1]; 15 mg hGH, Iontoph. off, +VD, 8.0 hr",873.4
same,hGH plasma levels,"[1]; 15 mg hGH, Iontoph. on, +VD, 0.0 hr",0.0
same,hGH plasma levels,"[1]; 15 mg hGH, Iontoph. on, +VD, 1.0 hr",504.8
same,hGH plasma levels,"[1]; 15 mg hGH, Iontoph. on, +VD, 2.0 hr",958.5
same,hGH plasma levels,"[1]; 15 mg hGH, Iontoph. on, +VD, 3.0 hr",2011.6
same,hGH plasma levels,"[1]; 15 mg hGH, Iontoph. on, +VD, 4.0 hr",2204.9
same,hGH plasma levels,"[1]; 15 mg hGH, Iontoph. on, +VD, 6.0 hr",1802.0
same,hGH plasma levels,"[1]; 15 mg hGH, Iontoph. on, +VD, 8.0 hr",1244.1
same,hGH plasma levels,"[1]; 15 mg hGH, Iontoph. on, intact, 0.0 hr",0.1
same,hGH plasma levels,"[1]; 15 mg hGH, Iontoph. on, intact, 1.0 hr",1.9
same,hGH plasma levels,"[1]; 15 mg hGH, Iontoph. on, intact, 2.0 hr",7.2
same,hGH plasma levels,"[1]; 15 mg hGH, Iontoph. on, intact, 3.0 hr",8.3
same,hGH plasma levels,"[1]; 15 mg hGH, Iontoph. on, intact, 4.0 hr",9.2
same,hGH plasma levels,"[1]; 15 mg hGH, Iontoph. on, intact, 6.0 hr",5.4
same,hGH plasma levels,"[1]; 15 mg hGH, Iontoph. on, intact, 8.0 hr",4.7
same,AUC,[1]; Intact + Iontophoresis 15 mg,47 ng·h/mL
same,Bioavailability,[1]; Intact + Iontophoresis 15 mg,0.05%
same,hGH plasma levels,"[1]; S.C. 150 ug/0.2 ml hGH, 0.0 hr",0.1
same,hGH plasma levels,"[1]; S.C. 150 ug/0.2 ml hGH, 1.0 hr",153.0
same,hGH plasma levels,"[1]; S.C. 150 ug/0.2 ml hGH, 2.0 hr",156.8
same,hGH plasma levels,"[1]; S.C. 150 ug/0.2 ml hGH, 3.0 hr",127.8
same,hGH plasma levels,"[1]; S.C. 150 ug/0.2 ml hGH, 4.0 hr",120.1
same,hGH plasma levels,"[1]; S.C. 150 ug/0.2 ml hGH, 6.0 hr",75.3
same,hGH plasma levels,"[1]; S.C. 150 ug/0.2 ml hGH, 8.0 hr",43.4
same,AUC,[1]; SC 150 ug,812 ng·h/mL
same,Bioavailability,[1]; SC 150 ug (reference),100%
same,AUC,[1]; [3],3156 ng·h/mL
same,Bioavailability,[1]; [3],3.9%
same,AUC,[1]; [4],2336 ng·h/mL
same,Bioavailability,[1]; [4],28.8%
same,AUC,[1]; [5],11630 ng·h/mL
same,Bioavailability,[1]; [5],14.3%
same,clinical observations at the site of the patch application,"[1]; abdomen, current on 0.64 mA/cm^2 for 8 hours",Black burning marks (3rd degree burns)
same,clinical observations at the site of the patch application,[1]; animals in which the power supply was off,No burn marks
same,hGH delivery by iontophoresis alone,"[1]; intact skin, 15 mg hGH",does not cause hGH delivery
same,AUC of ViaDerm and iontophoresis versus ViaDerm only (passive delivery),[2],3.5 fold
same,skin observation after removal of the iontophoretic patches,"[2]; 0.18 mA/cm^2, end of experiment",burn marks were seen at the contact area of the electrode
same,duration of hGH delivery,[2]; ViaDerm treated skin,more than 6 hours
same,Serum hGH levels,"[2]; Passive Patch 1.5 mg hGH, 0 h",0.1 ng/mL
same,Serum hGH levels,"[2]; Passive Patch 1.5 mg hGH, 0.75 h",5.1 ng/mL
same,Serum hGH levels,"[2]; Passive Patch 1.5 mg hGH, 1.5 h",14.0 ng/mL
same,Serum hGH levels,"[2]; Passive Patch 1.5 mg hGH, 2.25 h",23.3 ng/mL
same,Serum hGH levels,"[2]; Passive Patch 1.5 mg hGH, 3 h",40.8 ng/mL
same,Serum hGH levels,"[2]; Passive Patch 1.5 mg hGH, 6 h",34.0 ng/mL
same,Serum hGH levels,"[2]; Patch 1.5 mg hGH + Iontophoresis, 0 h",0.1 ng/mL
same,Serum hGH levels,"[2]; Patch 1.5 mg hGH + Iontophoresis, 0.75 h",22.7 ng/mL
same,Serum hGH levels,"[2]; Patch 1.5 mg hGH + Iontophoresis, 1.5 h",61.1 ng/mL
same,Serum hGH levels,"[2]; Patch 1.5 mg hGH + Iontophoresis, 2.25 h",109.8 ng/mL
same,Serum hGH levels,"[2]; Patch 1.5 mg hGH + Iontophoresis, 3 h",128.9 ng/mL
same,Serum hGH levels,"[2]; Patch 1.5 mg hGH + Iontophoresis, 6 h",175.1 ng/mL
same,AUC,[2]; ViaDerm and iontophoresis,637 ng·h/mL
same,AUC,[2]; ViaDerm only (passive delivery),182 ng·h/mL
